One series has as its system NIH3T3 normal cells. It is filed as cell-based. The following applies: for toxicity: NIH3T3, at a concentration less than 10 μl/ml; for cytotoxicity: NIH3T3 normal cells, MTT, treated 4 hours then cultured 1 day.
Another series concerns L929 normal cells. It is filed as cell-based. The following applies: for toxicity: L929, at a concentration less than 10 μl/ml; for cytotoxicity: L929 normal cells, MTT, treated 4 hours then cultured 1 day.
Series [1] relates to HCT116 (HCTE116) colorectal cancer cell line expressing PD-L1. It is filed as cell-based. The protocol: (§1) Thereafter, the viability and cytotoxicity of cells were analyzed in the same manner as in Experimental Example 2-1.
(§2) Lung cancer and colorectal cancer cell lines expressing PD-L1 (A549 and HCT116, respectively) were cultured, and then treated with an avelumab-succinyl-Pluronic conjugate. Thereafter, the viability and cytotoxicity of cells were analyzed in the same manner as in Experimental Example 2-1.

Series [2] deals with A549 lung cancer cell line expressing PD-L1. The format is cell-based. The protocol: as §1, §2
Series [3] relates to NIH-3T3 cells (do not express EGFR). Conditions: NIH-3T3, 2 hours, flow cytometer; non-specific inflow. (In flow cytometry, cells or beads pass a laser one at a time.)
Description: Thereafter, the cells were washed with a buffer solution and the targeting ability to each type of cell was analyzed by a flow cytometer.
Series [4] relates to SKOV3 cells, ovarian cell line expressing the EGFR.
Description: (§3) Thereafter, the cells were washed with a buffer solution, and further cultured for 1 day by adding a clean medium thereto.
(§4) The cultured cells were treated with MTT reagent and further cultured for 3 hours, then the culture solution and the MTT reagent were both removed, and dimethyl sulfoxide was added to dissolve formazan formed in the cells. Thereafter, absorbance was measured at 570 nm to compare the amounts of formazan formed and analyze the viability and cytotoxicity of cancer cells.

Description for L929 normal cells: as §3, §4
Description for NIH3T3 normal cells: as §3, §4

Consider “avelumab-maleimide-Pluronic F127 [AVE-Mal-PF127]”, for which the toxicity result in the series with NIH3T3 normal cells and in the series with L929 normal cells was “non-toxic” each time.

As to “avelumab-maleimide-Pluronic F68 [AVE-Mal-PF68]”, the toxicity result in the series on NIH3T3 normal cells and with L929 normal cells was “non-toxic” each time.

Take “avelumab-succinyl-Pluronic F68 [AVE-Suc-PF68]”: the “cytotoxicity compared to avelumab antibody alone (AVE) or AVE-Suc-PEG2K/PEG5K” value in series [1] and in series [2] was “greater increase in cytotoxicity” throughout.

“ramucirumab-maleimide-Pluronic F68 [RAM-Mal-PF68]”: the cytotoxicity result in the series with NIH3T3 normal cells and with L929 normal cells was “non-toxic” throughout.

For the substance “avelumab-maleimide-polyethylene glycol 2K [AVE-Mal-PEG2K, reference compound]”, the toxicity entry in the series on NIH3T3 normal cells and with L929 normal cells was “non-toxic” throughout. As to “ramucirumab-maleimide-Pluronic F127 [RAM-Mal-PF127]”, the cytotoxicity result in the series on NIH3T3 normal cells and in the series with L929 normal cells was “non-toxic” in each case. Turning to “maleimide-polyethylene glycol 2K-chlorin e6 [Mal-PEG2K-Ce6, reference compound]”, the “fluorescence signals compared to CTX-Mal-PF68-Ce6 or CTX-Mal-PEG2K-Ce6 treatment group” value in series [3] is reported as “increased”. For “avelumab-succinyl-Pluronic F127 [AVE-Suc-PF127]”, the “cytotoxicity compared to avelumab antibody alone (AVE) or AVE-Suc-PEG2K/PEG5K” value in series [1] and in series [2] was “greater increase in cytotoxicity” in each case. As for “ramucirumab-maleimide-polyethylene glycol 2K [RAM-Mal-PEG2K, reference compound]”, the cytotoxicity result in the series with NIH3T3 normal cells and in the series on L929 normal cells was “non-toxic” throughout. Turning to “maleimide-Pluronic F68-chlorin e6 [Mal-PF68-Ce6]”, the “fluorescence signals compared to CTX-Mal-PF68-Ce6 or CTX-Mal-PEG2K-Ce6 treatment group” value in series [3] is reported as “increased”.

Take maleimide-Pluronic F68 [Mal-PF68]: the cytotoxicity result in series [4] is on record as “non-cytotoxic”. With “avelumab-maleimide-polyethylene glycol 6K [AVE-Mal-PEG6K, reference compound]”, the toxicity entry with NIH3T3 normal cells and with L929 normal cells was “non-toxic” each time. Turning to “ramucirumab-maleimide-polyethylene glycol 6K [RAM-Mal-PEG6K, reference compound]”, the cytotoxicity entry in the series on NIH3T3 normal cells and in the series with L929 normal cells was “non-toxic” in each case.

These data come from patent US20240000961A1, “ANTIBODY-BASED CONJUGATE FOR ENHANCING THERAPEUTIC EFFECT OF TARGETED THERAPEUTIC AGENT” (THE CATHOLIC UNIVERSITY OF KOREA INDUSTRY-ACADEMIC …, priority 2020, published 2024).
